Paper PMC12775136, “Mechanistic insights into recruitment and regulation of the RNA helicase UPF1 in replication-dependent histone mRNA decay” (Nature Communications, 2025)

T1: 3′hExo as used in surface plasmon resonance (human, UniProt Q8IV48 1-349)
T1 construct: human 3′hExo (ERI1); Likely 3′hExofl
T1 sequence (looked up): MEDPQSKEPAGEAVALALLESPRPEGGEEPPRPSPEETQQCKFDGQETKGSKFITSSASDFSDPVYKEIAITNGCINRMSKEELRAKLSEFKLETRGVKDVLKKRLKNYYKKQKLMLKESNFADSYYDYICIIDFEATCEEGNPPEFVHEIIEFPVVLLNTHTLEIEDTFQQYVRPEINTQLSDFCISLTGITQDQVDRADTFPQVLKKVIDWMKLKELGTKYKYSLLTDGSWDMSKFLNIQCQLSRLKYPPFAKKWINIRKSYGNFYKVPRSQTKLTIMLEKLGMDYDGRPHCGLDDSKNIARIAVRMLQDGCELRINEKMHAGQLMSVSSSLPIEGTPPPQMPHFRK

T2: 3′hExofl (human, UniProt Q8IV48 1-349)
T2 construct: human 3′hExo (ERI1), full length; Modified pET28a, N-terminal 6x His-tag followed by an HRV-3C site; also called ERI1; full-length 3′hExo; source: E. coli BL21 Star (DE3) pRARE, purified (Ni-NTA, heparin, SEC)
T2 sequence (looked up): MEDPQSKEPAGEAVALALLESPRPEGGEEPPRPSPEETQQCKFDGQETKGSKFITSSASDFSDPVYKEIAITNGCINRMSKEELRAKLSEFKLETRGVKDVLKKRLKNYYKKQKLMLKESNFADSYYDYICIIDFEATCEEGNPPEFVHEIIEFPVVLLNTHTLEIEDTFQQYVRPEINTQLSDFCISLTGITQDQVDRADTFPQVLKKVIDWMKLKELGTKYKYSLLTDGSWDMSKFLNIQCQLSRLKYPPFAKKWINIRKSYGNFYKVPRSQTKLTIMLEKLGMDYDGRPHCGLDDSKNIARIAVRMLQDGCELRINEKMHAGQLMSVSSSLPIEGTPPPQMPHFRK


How the values were obtained:
[1] = target: T1, 3′hExo as used in surface plasmon …; test: SPR; format not told in the text shown; conditions: both partners purified
3′hExofl = target: T2, 3′hExofl; test: NMR titration; 1H-15N HSQC of 15N-labelled UPF2-AL or UPF2-ALm with stepwise addition of unlabelled 3′hExo proteins; 298 K; 20 mM HEPES pH 7.0, 100 mM NaCl, 2 mM DTT; KD from twelve amide peaks, one-to-one binding isotherm; conditions: both partners purified

Row | Binder | Kd [1] [µM] | Kd (3′hExofl) [µM]
1 | UPF2 as used in surface plasmon resonance (domain or fragment, not fully specified; numbers in words are those of the source; also: modified acidic linker UPF2-ALm, further changes not given here) KKKTEGENLEEDEEEEEGGAETEEQSGNESEVNEPEEEEGSDNDDDEGEEEEEENTDYLTDSNKE | ~170 | –
2 | UPF2-ALm (residues 1024–1085) (domain or fragment, human, UniProt Q9HAU5 1024-1085, looked up, human UPF2, residues 1024–1085 of the acidic linker; source: E. coli, purified; 15N-labelled) TEGENLEEDEEEEEGGAETEEQSGNESEVNEPEEEEGSDNDDDEGEEEEEENTDYLTDSNKE | – | ~200
